From the supplement of paper PMC9112550, “Optimization of the antimicrobial peptide Bac7 by deep mutational scanning” (BMC Biology, 2022)

Tested on: Escherichia coli TOP10
Experiment: shrunken log2 fold change of peptide-encoding DNA abundance (4.5 h post-induction vs induction); higher = less antimicrobial activity (less host growth inhibition)
Conditions: time post-induction: 4.5 h; library: site-saturation at positions 5, 18, 19, 20
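Also: peptides expressed intracellularly from a pBAD plasmid library in pooled LB shake-flask culture, induced with 0.3% L-arabinose, DNA abundance read by NGS, three biological replicates, DESeq2 with apeglm shrinkage.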

Sequence	shrunken log2 fold change
RRIRGRPPRLPRPRPRPCGPPRP	1.29
RRIRQRPPRLPRPRPRPFLFPRP	-0.288
RRIRWRPPRLPRPRPRPQMFPRP	0.197
RRIRFRPPRLPRPRPRPKFHPRP	-0.42
RRIRHRPPRLPRPRPRPITGPRP	0.015
RRIRRRPPRLPRPRPRPYQAPRP	-0.303
RRIRERPPRLPRPRPRPFQWPRP	0.0371
RRIRPRPPRLPRPRPRPDPVPRP	0.214
RRIRRRPPRLPRPRPRPWWMPRP	0.386
RRIRIRPPRLPRPRPRPCTHPRP	-0.791
RRIRVRPPRLPRPRPRPCMHPRP	1.2
RRIRDRPPRLPRPRPRPRYLPRP	-0.171
RRIRCRPPRLPRPRPRPGHNPRP	-0.385
RRIRERPPRLPRPRPRPSQNPRP	-0.267
RRIRLRPPRLPRPRPRPHGPPRP	0.101
RRIRPRPPRLPRPRPRPLIQPRP	-0.0119
RRIRYRPPRLPRPRPRPVGKPRP	-1.51
RRIRDRPPRLPRPRPRPDQDPRP	0.399
RRIRGRPPRLPRPRPRPYMKPRP	-0.493
RRIRARPPRLPRPRPRPWFAPRP	0.212
RRIRHRPPRLPRPRPRPVNSPRP	0.158
RRIRGRPPRLPRPRPRPTTSPRP	1.11
RRIRNRPPRLPRPRPRPWTCPRP	0.0493
RRIRWRPPRLPRPRPRPIIDPRP	0.0788
RRIRLRPPRLPRPRPRPISCPRP	-0.0691

Sequence	shrunken log2 fold change
RRIRPRPPRLPRPRPRPEEEPRP	0.163
RRIRQRPPRLPRPRPRPPRHPRP	0.644
RRIRKRPPRLPRPRPRPFTFPRP	-0.325
RRIRQRPPRLPRPRPRPAIFPRP	-0.0662
RRIRQRPPRLPRPRPRPCPCPRP	-0.354
RRIRGRPPRLPRPRPRPTWSPRP	0.977
RRIRKRPPRLPRPRPRPYKIPRP	-0.305
RRIRNRPPRLPRPRPRPRQEPRP	0.00772
RRIRGRPPRLPRPRPRPNHCPRP	-0.112
RRIRHRPPRLPRPRPRPKAVPRP	-0.00256
RRIRSRPPRLPRPRPRPFCMPRP	-0.324
RRIRPRPPRLPRPRPRPDLIPRP	-0.036
RRIRCRPPRLPRPRPRPIYMPRP	-1.29
RRIRDRPPRLPRPRPRPCTLPRP	-0.302
RRIRGRPPRLPRPRPRPYKWPRP	-0.0702
RRIRGRPPRLPRPRPRPQDKPRP	0.0315
RRIRSRPPRLPRPRPRPSQIPRP	-0.0773
RRIRDRPPRLPRPRPRPKYGPRP	-0.0519
RRIRQRPPRLPRPRPRPKNMPRP	-0.646
RRIRYRPPRLPRPRPRPCFMPRP	-0.675
RRIRNRPPRLPRPRPRPYDLPRP	-0.166
RRIRARPPRLPRPRPRPGIGPRP	0.524
RRIRDRPPRLPRPRPRPGRWPRP	0.797
RRIRRRPPRLPRPRPRPGPKPRP	0.255
RRIRRRPPRLPRPRPRPECDPRP	0.889

Sequence	shrunken log2 fold change
RRIRMRPPRLPRPRPRPYYNPRP	-0.709
RRIRTRPPRLPRPRPRPPTGPRP	0.158
RRIRQRPPRLPRPRPRPSWSPRP	-0.185
RRIRGRPPRLPRPRPRPWMAPRP	0.439
RRIRQRPPRLPRPRPRPMWDPRP	-0.0352
RRIRNRPPRLPRPRPRPKILPRP	0.0428
RRIRPRPPRLPRPRPRPFFIPRP	-0.249
RRIRTRPPRLPRPRPRPDTRPRP	-0.186
RRIRRRPPRLPRPRPRPYYTPRP	1.46
RRIRGRPPRLPRPRPRPDFHPRP	-0.0976
RRIRDRPPRLPRPRPRPKNRPRP	0.0678
RRIRPRPPRLPRPRPRPTEWPRP	0.0519
RRIRHRPPRLPRPRPRPAHRPRP	0.162
RRIRFRPPRLPRPRPRPAMDPRP	-0.0614
RRIRMRPPRLPRPRPRPYVFPRP	-0.368
RRIRQRPPRLPRPRPRPSFDPRP	0.182
RRIRLRPPRLPRPRPRPEKLPRP	-0.00411
RRIRWRPPRLPRPRPRPYAYPRP	0.0461
RRIRVRPPRLPRPRPRPEQCPRP	0.171
RRIRWRPPRLPRPRPRPTQLPRP	0.0699
RRIRSRPPRLPRPRPRPQFEPRP	0.189
RRIRHRPPRLPRPRPRPFTQPRP	-0.0771
RRIRFRPPRLPRPRPRPIEVPRP	0.0653
RRIRVRPPRLPRPRPRPNFVPRP	-0.491
RRIRWRPPRLPRPRPRPPEEPRP	1.26

Sequence	shrunken log2 fold change
RRIRDRPPRLPRPRPRPIYLPRP	2.37
RRIRLRPPRLPRPRPRPRDTPRP	-0.0364
RRIRYRPPRLPRPRPRPTAYPRP	-0.537
RRIRSRPPRLPRPRPRPGWLPRP	0.177
RRIRLRPPRLPRPRPRPKWVPRP	-0.25
RRIRWRPPRLPRPRPRPTLQPRP	0.253
RRIRWRPPRLPRPRPRPAFVPRP	0.139
RRIRMRPPRLPRPRPRPAQFPRP	-0.107
RRIRNRPPRLPRPRPRPTMHPRP	-0.159
RRIRFRPPRLPRPRPRPTVFPRP	-0.0947
RRIRPRPPRLPRPRPRPFQSPRP	0.0035
RRIRLRPPRLPRPRPRPHIFPRP	-0.747
RRIRKRPPRLPRPRPRPDWWPRP	-0.0103
RRIRVRPPRLPRPRPRPPNPPRP	0.379
RRIRIRPPRLPRPRPRPLMCPRP	-0.164
RRIRIRPPRLPRPRPRPACWPRP	0.222
RRIRIRPPRLPRPRPRPCQRPRP	-0.268
RRIRTRPPRLPRPRPRPAGSPRP	-0.000597
RRIRYRPPRLPRPRPRPQYCPRP	-0.361
RRIRRRPPRLPRPRPRPKMCPRP	-0.0385
RRIRLRPPRLPRPRPRPMNYPRP	-0.0583
RRIRYRPPRLPRPRPRPNWRPRP	0.326
RRIRGRPPRLPRPRPRPNEWPRP	1.8
RRIRARPPRLPRPRPRPWYLPRP	-0.161
RRIRRRPPRLPRPRPRPKEEPRP	-0.00663

Sequence	shrunken log2 fold change
RRIRCRPPRLPRPRPRPCTDPRP	0.0806
RRIRQRPPRLPRPRPRPHNQPRP	-0.644
RRIRFRPPRLPRPRPRPMAHPRP	0.0587
RRIRFRPPRLPRPRPRPRFDPRP	-0.248
RRIRDRPPRLPRPRPRPKMFPRP	0.00408
RRIRTRPPRLPRPRPRPVIPPRP	-0.133
RRIRTRPPRLPRPRPRPMHRPRP	-0.142
RRIRCRPPRLPRPRPRPVEWPRP	0.000166
RRIRHRPPRLPRPRPRPQGLPRP	-0.247
RRIRQRPPRLPRPRPRPFHKPRP	-0.0921
RRIRFRPPRLPRPRPRPNESPRP	0.0698
RRIRHRPPRLPRPRPRPDTPPRP	-0.0405
RRIRRRPPRLPRPRPRPVPMPRP	0.452
RRIRNRPPRLPRPRPRPHYKPRP	-0.333
RRIRNRPPRLPRPRPRPRRVPRP	0.551
RRIRPRPPRLPRPRPRPNGIPRP	-0.153
RRIRSRPPRLPRPRPRPADHPRP	-0.166
RRIRWRPPRLPRPRPRPDCTPRP	0.372
RRIRHRPPRLPRPRPRPNDMPRP	-0.26
RRIRTRPPRLPRPRPRPMHVPRP	-0.0197
RRIRCRPPRLPRPRPRPAEGPRP	0.14
RRIRHRPPRLPRPRPRPARTPRP	0.19
RRIRRRPPRLPRPRPRPMVHPRP	0.113
RRIRHRPPRLPRPRPRPGSDPRP	-0.014
RRIRFRPPRLPRPRPRPSKAPRP	-0.367
